Drawing on the Immune Epitope Database (IEDB), this text covers Kd for 37 sequences.

Common to all, as to assay: IEDB peptide-MHC binding, purified MHC/competitive/radioactivity; filed as Kd, often an IC50 or EC50 that approximates it; ≥ and ≤ were set here for values at or beyond the usual limits of such assays
The target of test [1] is HLA-A*03:01.
The target of test [2] is HLA-A*11:01.
Test [3] deals with HLA-A*31:01.
For test [4], the target named is HLA-A*33:01.
Test [5] has as its target HLA-A*68:01.
The mark [6] stands for this setting: source organism: SARS coronavirus Tor2.
Setting [7] is: source organism: Vaccinia virus WR.
Where [8] appears, read: source organism: Mammarenavirus brazilense.
Setting [9] is: source organism: Vaccinia virus Copenhagen.
Where [10] appears, read: source organism: Triticum aestivum.
[11] abbreviates: source organism: Lymphocytic choriomeningitis virus (strain Armstrong).
The mark [12] stands for this setting: source organism: Lassa virus Josiah.

Where only a bound is given, the exact number is not on record here.

Broadly, the Kd is the free concentration of one partner at which half of the binding sites on the other are occupied at equilibrium, for simple one-to-one binding. With AIYVFCISLK, the dissociation constant Kd in test [1] (setting [6]) was 161 nM; in test [2] (setting [6]), 489 nM; in test [3] (setting [6]), 11300 nM; in test [4] (setting [6]), ≥ 48.9 µM; in test [5] (setting [6]) it was 8800 nM.
For the sequence KAGNILFWPY, the Kd in test [1] (setting [7]) is 248 nM; in test [2] (setting [7]), 363 nM; in test [3] (setting [7]), ≥ 22500 nM; in test [4] (setting [7]), ≥ 70 µM; in test [5] (setting [7]), 14000 nM.
As for TALAKCNLDH, the dissociation constant (Kd) in test [1] (setting [8]) is ≥ 70000 nM; in test [2] (setting [8]) it was ≥ 69700 nM; in test [3] (setting [8]), 878 nM; in test [4] (setting [8]) it was ≥ 46.9 µM; in test [5] (setting [8]) it was ≥ 35100 nM.
Consider TTTSTALGK, for which the Kd is 718 nM in test [1] (setting [6]); 31.8 nM in test [2] (setting [6]); 1080 nM in test [3] (setting [6]); ≥ 77.7 µM in test [4] (setting [6]); 28 nM in test [5] (setting [6]).
Take VLLRKNGNK: the equilibrium dissociation constant (Kd) is 42.2 nM in test [1] (setting [6]); 1660 nM in test [2] (setting [6]); 2360 nM in test [3] (setting [6]); 9.64 µM in test [4] (setting [6]); ≥ 26100 nM in test [5] (setting [6]).
In the case of IIDAKNDDWK, the dissociation constant (Kd) in test [1] (setting [7]) was 6380 nM; in test [2] (setting [7]), 15900 nM; in test [3] (setting [7]), ≥ 70000 nM; in test [4] (setting [7]), ≥ 70 µM; in test [5] (setting [7]), 2270 nM.
For TVKMGAFMY, in that order: 523 nM, 25.3 nM, 3040 nM, 8.71 µM and 48.9 nM.
For GAAVTLNRIK, in that order: 1750 nM, 1040 nM, ≥ 40600 nM, ≥ 70 µM and 8350 nM.
For VSDLYTSMR, the Kd in test [1] (setting [7]) stood at 2490 nM; in test [2] (setting [7]) it was 4650 nM; in test [3] (setting [7]) it was 1310 nM; in test [4] (setting [7]) it was 4.2 µM; in test [5] (setting [7]), 651 nM.
Regarding ILARRPTPKK, the Kd in test [1] (setting [9]) was 1.7 nM; in test [2] (setting [9]), 4 nM; in test [3] (setting [9]) it was 18100 nM; in test [4] (setting [9]), ≥ 70 µM; in test [5] (setting [9]), 2390 nM.
In the case of DFAVSKGFFK, the dissociation constant Kd in test [1] (setting [6]) turned out to be 768 nM; in test [2] (setting [6]), 107 nM; in test [3] (setting [6]), 1040 nM; in test [4] (setting [6]), 0.0501 µM; in test [5] (setting [6]) it was 16.8 nM.
Consider AVVYRGTTTY, for which the Kd in test [1] (setting [6]) stood at 123 nM; in test [2] (setting [6]), 492 nM; in test [3] (setting [6]) it was 5040 nM; in test [4] (setting [6]), 19.3 µM; in test [5] (setting [6]), 861 nM.
Take FFTYLCGFIK: the equilibrium dissociation constant (Kd) turned out to be 440 nM in test [1] (setting [6]); 963 nM in test [2] (setting [6]); 612 nM in test [3] (setting [6]); 1.2 µM in test [4] (setting [6]); 206 nM in test [5] (setting [6]).
As to NVVHAIILH, the Kd in test [1] (setting [10]) was 19500 nM; in test [2] (setting [10]) it was ≥ 42800 nM; in test [3] (setting [10]) it was 14000 nM; in test [4] (setting [10]), ≥ 24.6 µM; in test [5] (setting [10]), 1490 nM.
With GVTFQGKFKK, the Kd in test [1] (setting [6]) was 761 nM; in test [2] (setting [6]) it was 536 nM; in test [3] (setting [6]), 2840 nM; in test [4] (setting [6]) it was ≥ 24.1 µM; in test [5] (setting [6]), 1860 nM.
STSAADIKR: the equilibrium dissociation constant (Kd) is ≥ 30400 nM in test [1] (setting [7]); 13.2 nM in test [2] (setting [7]); 1300 nM in test [3] (setting [7]); ≥ 22.1 µM in test [4] (setting [7]); 5.19 nM in test [5] (setting [7]).
In the case of IILANERYR, the Kd in test [1] (setting [7]) was determined as 9590 nM; in test [2] (setting [7]) it was 6670 nM; in test [3] (setting [7]), 106 nM; in test [4] (setting [7]) it was 2.77 µM; in test [5] (setting [7]), 92.8 nM.
With FMVSVSDFR, the dissociation constant (Kd) in test [1] (setting [7]) was 3050 nM; in test [2] (setting [7]), 493 nM; in test [3] (setting [7]), 67.2 nM; in test [4] (setting [7]), 0.219 µM; in test [5] (setting [7]) it was 0.398 nM.
For TTLLNETAK, in that order: 201 nM, 13.1 nM, 3560 nM, 8.06 µM and 10.2 nM.
For RLFRSPQVK, the equilibrium dissociation constant (Kd) in test [1] (setting [7]) amounted to 87.2 nM; in test [2] (setting [7]), 715 nM; in test [3] (setting [7]) it was 4960 nM; in test [4] (setting [7]) it was 15.3 µM; in test [5] (setting [7]) it was 3670 nM.
For the sequence DHVSTLLTWH, the Kd was ≥ 22400 nM in test [1] (setting [11]); ≥ 69700 nM in test [2] (setting [11]); 8610 nM in test [3] (setting [11]); ≥ 70 µM in test [4] (setting [11]); 12300 nM in test [5] (setting [11]).
With GMNDYLGIFK, the Kd in test [1] (setting [7]) was found to be 2.86 nM; in test [2] (setting [7]) it was 4.28 nM; in test [3] (setting [7]), 390 nM; in test [4] (setting [7]) it was 5.97 µM; in test [5] (setting [7]), 572 nM.
With ATDYIASGQR, the Kd in test [1] (setting [7]) is 148 nM; in test [2] (setting [7]) it was 73.2 nM; in test [3] (setting [7]), 197 nM; in test [4] (setting [7]), 2.11 µM; in test [5] (setting [7]), 192 nM.
On to GFPFNKWGK, for which the equilibrium dissociation constant (Kd) in test [1] (setting [6]) was ≥ 20800 nM; in test [2] (setting [6]), 655 nM; in test [3] (setting [6]) it was 721 nM; in test [4] (setting [6]) it was 17.7 µM; in test [5] (setting [6]), 17400 nM.
Regarding SKFWYLEHAK, the Kd is 18800 nM in test [1] (setting [11]); 5190 nM in test [2] (setting [11]); 1010 nM in test [3] (setting [11]); 0.879 µM in test [4] (setting [11]); ≥ 30600 nM in test [5] (setting [11]).
For ALDGTFQRK, the Kd in test [1] (setting [7]) is 12.5 nM; in test [2] (setting [7]), 30.4 nM; in test [3] (setting [7]), ≥ 37900 nM; in test [4] (setting [7]) it was ≥ 77.7 µM; in test [5] (setting [7]), ≥ 47200 nM.
In the case of SVSIILANER, the Kd was 2520 nM in test [1] (setting [7]); 77.1 nM in test [2] (setting [7]); 655 nM in test [3] (setting [7]); 1.64 µM in test [4] (setting [7]); 0.432 nM in test [5] (setting [7]).
Consider NVTLFYCDER, for which the equilibrium dissociation constant (Kd) amounted to 6080 nM in test [1] (setting [7]); 2830 nM in test [2] (setting [7]); 777 nM in test [3] (setting [7]); 0.818 µM in test [4] (setting [7]); 8.23 nM in test [5] (setting [7]).
In the case of VTFLLLCGR, the Kd stood at 3060 nM in test [1] (setting [12]); 18.2 nM in test [2] (setting [12]); 18.4 nM in test [3] (setting [12]); 0.132 µM in test [4] (setting [12]); 13.8 nM in test [5] (setting [12]).
As to PLTSLVITY, the dissociation constant Kd in test [1] (setting [7]) was 13900 nM; in test [2] (setting [7]) it was ≥ 22100 nM; in test [3] (setting [7]), 1880 nM; in test [4] (setting [7]) it was ≥ 46.8 µM; in test [5] (setting [7]), 5600 nM.
Turning to EIINDKGKQY, the Kd in test [1] (setting [7]) was ≥ 70100 nM; in test [2] (setting [7]), ≥ 69800 nM; in test [3] (setting [7]), 12800 nM; in test [4] (setting [7]) it was ≥ 70 µM; in test [5] (setting [7]) it was 3990 nM.
On the same counts, the results for LMWNKQFIK are 6.26 nM, 2.57 nM, 12.9 nM, 0.0318 µM and 200 nM.
Turning to DTSYYVKEY, the dissociation constant (Kd) in test [1] (setting [7]) was ≥ 78000 nM; in test [2] (setting [7]), 14300 nM; in test [3] (setting [7]) it was ≥ 77900 nM; in test [4] (setting [7]), ≥ 77.7 µM; in test [5] (setting [7]), 69.1 nM.
With DLTQIFEVY, the Kd in test [1] (setting [7]) came to 11100 nM; in test [2] (setting [7]), 463 nM; in test [3] (setting [7]), 1370 nM; in test [4] (setting [7]), 0.938 µM; in test [5] (setting [7]) it was 857 nM.
As for MTLVPVLEKK, the Kd in test [1] (setting [7]) stood at 8.42 nM; in test [2] (setting [7]) it was 0.466 nM; in test [3] (setting [7]), 122 nM; in test [4] (setting [7]), 0.869 µM; in test [5] (setting [7]) it was 1.31 nM.
KAMLYIIRR: the dissociation constant Kd in test [1] (setting [7]) was found to be 1200 nM; in test [2] (setting [7]), 14.5 nM; in test [3] (setting [7]) it was 0.319 nM; in test [4] (setting [7]), 0.15 µM; in test [5] (setting [7]) it was 19.8 nM.
Turning to LLNETAKVIK, the dissociation constant (Kd) was 1590 nM in test [1] (setting [7]); 230 nM in test [2] (setting [7]); 2430 nM in test [3] (setting [7]); 15.4 µM in test [4] (setting [7]); 4000 nM in test [5] (setting [7]).
